Experimental findings from US6747136 are described below.

A word on the IC50: it is the concentration that gives 50% inhibition.

The target in the experiment is recombinant conformational HCV E2 antigen (HCV genotype 1a) (hepatitis C virus, HCV1 (genotype 1a)) (UniProt P26664). Briefly: NOB assay: control Fab pre-mixed with E2 1a, E2 binding to MOLT-4 cells by flow cytometry; 50% reduction titer, Exp. I.
Sequence of recombinant conformational HCV E2 antigen (HCV genotype 1a) (hepatitis C virus, HCV1 (genotype 1a)) (P26664 383-715): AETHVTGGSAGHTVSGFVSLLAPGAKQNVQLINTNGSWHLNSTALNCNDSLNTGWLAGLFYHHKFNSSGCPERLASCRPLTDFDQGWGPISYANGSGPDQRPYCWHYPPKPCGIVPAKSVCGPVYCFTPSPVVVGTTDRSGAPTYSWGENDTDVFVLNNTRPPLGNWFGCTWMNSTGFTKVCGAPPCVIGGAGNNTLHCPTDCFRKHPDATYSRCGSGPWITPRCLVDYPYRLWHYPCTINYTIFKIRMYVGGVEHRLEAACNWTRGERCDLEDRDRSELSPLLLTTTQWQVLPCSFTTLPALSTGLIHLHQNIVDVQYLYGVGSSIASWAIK

As for “negative control Fab clone b12 directed to HIV-1 envelope glycoprotein gp120”, the IC50 is greater than 10 µg/mL.
